± gives the half width of the 95% confidence interval.
Experiments:
[1] = folding stability dG unfold from trypsin proteolysis; higher = more stable
Method in brief: (§1)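 Only designs with AlphaFold2 dimer inter-PAE above 15 were retained; each was a mini-protein under 80 residues with no cysteine, in a PA-tagged cDNA display construct. After digestion with trypsin and chymotrypsin and sequencing, K50 was inferred by Bayesian fitting of counts, and unfolding free energy was derived per protease or combined against a sequence-predicted unfolded-state K50 and a shared folded-state K50.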

[2] = folding stability dG unfold from chymotrypsin proteolysis; higher = more stable
Method in brief: as §1

[3] = folding stability dG unfold (combined trypsin and chymotrypsin); higher = more stable
Method in brief: as §1

Sequence	folding stability dG unfold [1]	folding stability dG unfold [2]	folding stability dG unfold [3]
SAGGSAGGSAGEKEITISILVKGEDGRLYAIKMKAKITFDEKTNELKIEIEEISITPLPPSAGGSAGGSAGG [r17_129_TrROS_Hall]	3.98 ± 0.21 kcal/mol	4.29 ± 0.16 kcal/mol	4.32 ± 0.23 kcal/mol
SAGGSAGGSAGEKPVYYARVTEVKYNPENKELEIKLENGETITLSLEELKSLKPGDIIRISAGGSAGGSAGG [r11_124_TrROS_Hall]	1.88 ± 0.057 kcal/mol	2 ± 0.023 kcal/mol	1.97 ± 0.065 kcal/mol
SAGGSAGGSAGEPKIIPIKLPENAKVEEFENPDGYPIKIFENPDNGEIWIVWPDGKIWPISAGGSAGGSAGG [r11_601_TrROS]	1.19 ± 0.051 kcal/mol	0.719 ± 0.056 kcal/mol	0.93 ± 0.067 kcal/mol
SAGGSAGGSAGEPVEIEIKIKVEVNGKTYEITAKLEVYKNEDGSYEVKLYAPPEAITEVESAGGSAGGSAGG [r11_816_TrROS_Hall]	2.47 ± 0.21 kcal/mol	2.99 ± 0.09 kcal/mol	2.7 ± 0.24 kcal/mol
SAGGSAGGSAGETITVKIVRFKPGSPEVRKLAEKLGLSEEEVEPVEVFTFKSEEELKAALSAGGSAGGSAGG [r11_83_TrROS_Hall]	-0.172 ± 0.12 kcal/mol	0.471 ± 0.24 kcal/mol	0.374 ± 0.16 kcal/mol
SAGGSAGGSAGEVVVEEKEDPSGVLTRTETYPDSVVVTEYKIAPDGKTTEPKPTILPKSESAGGSAGGSAGG [r17_72_JUSTAS]	-0.494 ± 0.1 kcal/mol	-0.583 ± 0.22 kcal/mol	-0.337 ± 0.15 kcal/mol
SAGGSAGGSAGFEAFVEEIKKDGDYKVEAFVFDNESGIKTLVIVLESPEEDKYEIRTFNISAGGSAGGSAGG [r11_753_TrMRF]	0.769 ± 0.038 kcal/mol	0.796 ± 0.24 kcal/mol	0.829 ± 0.14 kcal/mol
SAGGSAGGSAGFFIRIEPPNGEKVHFPMPPNQLPELAEEFPGLKIDDIDEGNGWIWVEVPSAGGSAGGSAGG [r17_22_TrROS]	-0.0744 ± 0.23 kcal/mol	-0.453 ± 0.47 kcal/mol	-0.264 ± 0.35 kcal/mol
SAGGSAGGSAGFNFDIELERDPNGRARVMIKIPLPNGKHYIVIYEFDPDSGKMETKIFPVSAGGSAGGSAGG [r11_107_TrROS]	3.07 ± 0.086 kcal/mol	3.82 ± 0.12 kcal/mol	3.43 ± 0.19 kcal/mol
SAGGSAGGSAGGAPNAPKPVLVFAEVTVTSVEYDPETGELRIEVELPDGGEKLTFRLPLSAGGSAGGSAGGS [r10_427_TrMRF]	1.93 ± 0.031 kcal/mol	2.44 ± 0.031 kcal/mol	2.23 ± 0.054 kcal/mol
SAGGSAGGSAGGAPPGAKFTVKVPSNDNVIPGSVTLGPDGGTVFHFDGPVPEGDYEIVLESAGGSAGGSAGG [r7_627_JUSTAS]	-1.63 ± 0.33 kcal/mol	-0.362 ± 0.17 kcal/mol	-0.643 ± 0.15 kcal/mol
SAGGSAGGSAGGAPTIRVELRHPNGERIELEFPADADVIFVPEDYEITRIEIVPADDPASAGGSAGGSAGGS [r10_571_TrMRF]	1.51 ± 0.062 kcal/mol	1.837 ± 0.018 kcal/mol	1.69 ± 0.052 kcal/mol
SAGGSAGGSAGGAVFKTPDGTTLTLLPDGTVVVTEYSPDGVPLRVETRTMTAADIAAAASAGGSAGGSAGGS [r10_874_JUSTAS]	-0.022 ± 0.12 kcal/mol	1.5 ± 0.088 kcal/mol	1.01 ± 0.085 kcal/mol
SAGGSAGGSAGGAVTTNKDVPLPGPFSIGTVTVSPPDPATPVVTFNSYEGNGPVTLTVPVSAGGSAGGSAGG [r11_1013_JUSTAS]	1.24 ± 0.015 kcal/mol	0.321 ± 0.11 kcal/mol	0.921 ± 0.04 kcal/mol
SAGGSAGGSAGGDENDYYMVEIPIWRRNENGGWEPIFPIPIMVPKGAPKDVAKDILNNLSAGGSAGGSAGGS [r10_470_TrROS]	0.361 ± 0.1 kcal/mol	0.324 ± 0.12 kcal/mol	0.382 ± 0.085 kcal/mol
SAGGSAGGSAGGDGEDGKPKPEPKIKIKIEVESVRNPNGFLIVTYRIPALGIWITIIINSAGGSAGGSAGGS [r10_160_TrROS]	3.03 ± 0.15 kcal/mol	4.91 ± 0.24 kcal/mol	4.6 ± 0.39 kcal/mol
SAGGSAGGSAGGDGIVVPVDEAVGLIKELGLKVVGVFEHPGGPPAVLFELPDGRLLLAESAGGSAGGSAGGS [r10_210_TrMRF]	0.381 ± 0.045 kcal/mol	0.792 ± 0.042 kcal/mol	0.603 ± 0.047 kcal/mol
SAGGSAGGSAGGDITIDTEQMPNGWHTVKVRLPNGKPIAPVPMPPGMTPEEAVKRALDRLSAGGSAGGSAGG [r7_444_TrROS]	0.0871 ± 0.065 kcal/mol	-0.407 ± 0.25 kcal/mol	0.0336 ± 0.12 kcal/mol

Sequence	folding stability dG unfold [1]	folding stability dG unfold [2]	folding stability dG unfold [3]
SAGGSAGGSAGGDKNDLSPGATISTYTNPGSFTVTLPTGETVTLPKTVTTTVTFFDSTNSAGGSAGGSAGGS [r10_643_JUSTAS]	0.254 ± 0.072 kcal/mol	0.104 ± 0.14 kcal/mol	0.227 ± 0.08 kcal/mol
SAGGSAGGSAGGDLLRDLPGLELRIETVTVTERYFDEDGELVEEREETVTRIELRRPGEESAGGSAGGSAGG [r7_614_TrROS_Hall]	0.383 ± 0.2 kcal/mol	2.15 ± 0.1 kcal/mol	1.75 ± 0.2 kcal/mol
SAGGSAGGSAGGDNLMIMIEIEPVKTETRMDPDGKMETRTEYRIKIEIIPPPNPDDPENNSAGGSAGGSAGG [r7_523_TrROS]	1.55 ± 0.11 kcal/mol	2.63 ± 0.049 kcal/mol	2.28 ± 0.17 kcal/mol
SAGGSAGGSAGGDNRLPIPVKTPVVVVPADEAREEIRATLPPDAYRVEEERGDYVTISLGSAGGSAGGSAGG [r7_670_JUSTAS]	0.481 ± 0.044 kcal/mol	1.05 ± 0.022 kcal/mol	0.847 ± 0.049 kcal/mol
SAGGSAGGSAGGDNWKIGIDIIPIRFTFEMTMKDGGKPRPMRMEFEVTIIVIKITPPGDSAGGSAGGSAGGS [r10_118_TrROS]	3.5 ± 0.1 kcal/mol	5.1 ± 0.079 kcal/mol	4.89 ± 0.11 kcal/mol
SAGGSAGGSAGGDPDERIPIKIEMWHPNKPYEHEFPVGMDLSDIADPFASDGFMVRIEISAGGSAGGSAGGS [r10_540_TrROS]	0.795 ± 0.058 kcal/mol	1.26 ± 0.07 kcal/mol	1.05 ± 0.14 kcal/mol
SAGGSAGGSAGGDPNWVTVTIMIKVPPGDKPIEIEIPNGIKVEYYPFPDDGYLIFKITVRSAGGSAGGSAGG [r7_796_TrROS]	2.78 ± 0.16 kcal/mol	3.11 ± 0.16 kcal/mol	3.02 ± 0.23 kcal/mol
SAGGSAGGSAGGDTVEIELRAFFPETGLIITPTITIDKNGKIISINPRIEPLPPPLEGILSAGGSAGGSAGG [r7_135_TrMRF]	0.341 ± 0.069 kcal/mol	-0.253 ± 0.1 kcal/mol	0.0659 ± 0.23 kcal/mol
SAGGSAGGSAGGDWITFTNPGGYKVTVEVDENGWMRVEVYPNGKPQEVPMPLEELKKNAPSAGGSAGGSAGG [r7_178_TrROS]	-0.451 ± 0.18 kcal/mol	0.868 ± 0.17 kcal/mol	0.423 ± 0.19 kcal/mol
SAGGSAGGSAGGEAKIKLEVEETPGGLVIRAEVEVDGKLYEVELRIKGDEIVEVKIKPLDSAGGSAGGSAGG [r7_187_TrROS_Hall]	2.13 ± 0.097 kcal/mol	2.62 ± 0.2 kcal/mol	2.5 ± 0.17 kcal/mol
SAGGSAGGSAGGEDPNLKSKTITKKVEKGKLDSSKNITDSSGNTSIITVENNTITITIVSSAGGSAGGSAGG [r7_97_JUSTAS]	-0.215 ± 0.31 kcal/mol	1.66 ± 0.049 kcal/mol	1.03 ± 0.2 kcal/mol
SAGGSAGGSAGGEEKTEEEKRKEERLKPAPPLVLELDVEVDGKLYRFRLVNGKLEIEELPSAGGSAGGSAGG [r7_156_TrROS_Hall]	1.71 ± 0.047 kcal/mol	2.98 ± 0.038 kcal/mol	2.56 ± 0.11 kcal/mol
SAGGSAGGSAGGEIKPGETITNLKVKIRNKKTGKTITVTLKPGETAEDLAKKLGVEIEPSAGGSAGGSAGGS [r10_202_TrROS_Hall]	0.622 ± 0.12 kcal/mol	0.881 ± 0.097 kcal/mol	0.87 ± 0.1 kcal/mol
SAGGSAGGSAGGEIVIPVDGKLVVIKLKNGKKITVPVEDLKELLKKLGIKNAKIEVVPAKSAGGSAGGSAGG [r7_235_TrROS_Hall]	1.8 ± 0.088 kcal/mol	2.82 ± 0.049 kcal/mol	2.56 ± 0.17 kcal/mol
SAGGSAGGSAGGEKVVVPPPEVELRLERREDGYVRLYARNKDGEWEEVAVFKVSPEELELSAGGSAGGSAGG [r7_659_TrROS_Hall]	3.09 ± 0.19 kcal/mol	3.77 ± 0.13 kcal/mol	3.37 ± 0.32 kcal/mol
SAGGSAGGSAGGELELEVEVDGVLVRARVELDPETDELKIELEVRPLPPPEVVFLPEDRSAGGSAGGSAGGS [r10_582_TrROS_Hall]	0.576 ± 0.072 kcal/mol	0.504 ± 0.029 kcal/mol	0.489 ± 0.1 kcal/mol
SAGGSAGGSAGGEMRLRISWNHPNGQPQVIEFPVGDIKEFLKKLGIDNIPPDKLTNIEPYSAGGSAGGSAGG [r7_745_TrROS]	1.25 ± 0.039 kcal/mol	1.37 ± 0.092 kcal/mol	1.36 ± 0.094 kcal/mol
SAGGSAGGSAGGENPVDFKARVELLSGVVELTYTNEDGEPTTTLEEVVALKIEIEPSNNSAGGSAGGSAGGS [r10_1212_TrMRF]	1.23 ± 0.046 kcal/mol	1.81 ± 0.062 kcal/mol	1.65 ± 0.073 kcal/mol

Source: the supplement of paper PMC12764529
